Here are results for four molecules from PMC10290134, “Development of a one-shot dual aptamer-based fluorescence nanosensor for rapid, sensitive, and label-free detection of periostin”.

T1: Periostin (UniProt Q15063 496-836)
T1 sequence: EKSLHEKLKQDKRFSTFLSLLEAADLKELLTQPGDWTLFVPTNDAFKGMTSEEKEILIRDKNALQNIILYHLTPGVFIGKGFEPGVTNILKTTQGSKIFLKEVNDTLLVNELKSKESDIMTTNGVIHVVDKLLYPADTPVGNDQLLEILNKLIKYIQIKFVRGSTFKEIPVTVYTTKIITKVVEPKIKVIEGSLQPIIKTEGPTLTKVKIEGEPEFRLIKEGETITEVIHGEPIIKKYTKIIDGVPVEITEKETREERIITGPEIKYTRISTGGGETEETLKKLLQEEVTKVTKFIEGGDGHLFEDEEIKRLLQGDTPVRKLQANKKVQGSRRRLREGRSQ

B1: PL5 (ssDNA)
DNA: CACCTAATACGACTCACTATAGCGGATCCGATTCGAACCAGAATATTAGTCGCAAAATCTTGATGCAGTCACTGGCTCGAACAAGCTTGC
B2: PL5trunc (ssDNA)
DNA: TAATACGACTCACTATAGCGGATCCGATTCGAACCAGAATATTAGTCGCAAAATCTTGATG
B3: PL2trunc (ssDNA)
DNA: TCAACGCCAGATAAAAACAATTTGCCTTCCTCCGCCCCTGGCTCGAA
B4: PL2 (ssDNA)
DNA: CACCTAATACGACTCACTATAGCGGATCCGAAAGTCAACGCCAGATAAAAACAATTTGCCTTCCTCCGCCCCTGGCTCGAACAAGCTTGC

Usually Kd stands for the free concentration of one partner at which half of the binding sites on the other are occupied at equilibrium, for simple one-to-one binding.

The target of this data set is T1, Periostin. Description: magnetic bead fluorescence assay; 5 mM Mg2+; 20 mM Tris-HCl pH 8.0, 100 mM NaCl, 5 mM KCl, 5 mM MgCl2, 0.05% Tween 20, 25 °C, 1 h; His-tagged periostin on His-tag magnetic beads. Particulars: protein: recombinant; tags: 6xHis (pET-28a); label: 5' Cy3.
For the molecule B1, the Kd was determined as 50.1 nM.
Regarding B2, the Kd is 37 nM.
Consider B3, for which the Kd was 10.1 nM.
As to B4, the Kd was determined as 45.7 nM.
